17 sequences from a protein production outcome set (Wang et al. 2014) can be followed below.

A short description of the data set: label from the status in PepcDB records.
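Further: failed if final PepcDB status was selected cloned or expressed and not failed if soluble or beyond.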

Regarding “MSDSLPQRNGGQILVEALRRNAVDTVYCIPGESYLPVLDALYDTDGIRTVVTRHEGAASNMADAYGKLTGRPGICFVTRGPGATHAANGVHTAQQDSTPMILFVGQVESAFKGREAFQEVDYVQMFSGLAKWAVEIDRIERIPEIVGRAFSVATSGRPGPVVVALPEEILFGSAQVADAPEPRVLPGRPGATAMAELRELLANARRPLLVLGGSGWDSAARKRLGAFVEANGLPVATSFRRQDLFDNRDPHYAGQLGFGAAPALLERLRQADLLLVVGARLGETPSAGYSLVRSPAPAQTLIHVHPDSAELNRVYLARLPIQATPCAFAEALADLAPLPSSTWQDWREAAHADYLAYSTPAASDPAVQGVDLASVVAYLSENLPDDAVIANGAGNYAVWVHRFYRYRQARTQLAPTNGAMGYGLPAAIAASLRDPQRSVVCFAGDGCFMMYPQELATAAQFGATPVVIVVNNGMLGTIRMHQEREYPGRVSATRLDNPDFVALARAFGAHAERVECSADFPAAFRRARESGRPALLELLTDPRQITPQA”, the protein production result is reported as “failed”.
With “MSDTPQAILLMGPTASGKTGLALELARRFPVEIVSVDSALVYRDMDIGTAKPTAEEMAACPHHLIDVISPLQSYSAAQFHADANRLIADIQARGKLPLLVGGTMLYYKALLEGLSDLPQADAALRAELDADAALLGWPAMHARLAELDPATASRLNPNDSQRIHRALEVCLLSGKPMSELIAQGKEAAAGFRFLPLALVPRERGWLHARIAERFRIMLEQGFLDEVSRLRAKYPELTLNLPSMRCVGYRQAWEHQDGLYGHDEFVERGVAATRQLAKRQLTWTRSLDAIPVDAQRDGLAGLLGDAVDDFLAGRPPAESLRYAGDFLEHHHHHH” the entry was “not failed”.
Consider “MSDVEDVPETQLEIDVSDGAGLEDEDDDDMEQITAQKVLEIIETAWINEMCAPEILPSQTDMLELMVSQVAHMEEQMRDLDKNDFRAVVHSMELERVRYIMASYLRCRLQKIETFTQHILNQEESREPDDKRLSPEETKFAQEFASNVDEYFHKVATQYMPNQQRGEAEQRIVTPNLMSHVFLKANVAVPAVIVGVDDEEVDMAAGSQHIIPYQLVADLIQNNQAQLI”, for which the protein production result is “failed”.
Under “MSDVIQLAYFAVAVVFILGLKAMSSPVSARKGIVWAGYAMVAATLITLLKPGMENYGLMITAIVLGGAVAWWSGKVVKMTDMPQMVAIYNGMGSGAAAAIAALEFARGSMHGGFAATLAVLGALIGSVAFSGSCIAFAKLQGIMTKAWRLPAQNVVNVALAGIALVLGGAIIFGSTPASEMVIAFFVVALALGAILTSPIGGADMPVVISLLNAFTGLAVGFEGYVLGNPALIVAGIVVGASGTLLTQLMAKAMNRPIKNIIFTPITGAAAGGGEAIGGSMKELSALDGASVMRYASKVIIVPGYGMAVAGAQHKVWEMAQLLEEGGVEVVFAIHPVAGRMPGHMNVLLAEAGVPYDKIFDLEEINADFPQADVALVIGANDVVNPVARTDKSSPIYGMPILNVDMAQNVIVVKRGQGAGYSGIENALFFKDNCRMLYGSAQQIIGEVITHVKALEV” stands “failed”; under “MSDVRTNEAEKRHAHPDFDAARFPADARVRVLARRFPPYHRDSPCLAILDRFLHDPTLSAAAVVDDAMRPVGLIDRYSLVEQFLHPYSRDLYHKHSIAAFMDPEPVIVEADSSIDDLSRIIIDAGMRHMVSGFIVTEDGLYLGIGSGHDLFEEVANRKQNHLYHLAHYDPLTSLPNRLLLNDRLKRACLRGQRGGYRIALLFIDLDRFKLVNDTLGHAAGDQLLQGVAGRFAACVRKVDTVARLGGDEFTVLLEPVQGPDEALAVAAKLAQSLERPFLIQNHEITTSASIGVVLFPEHDATVEGLMRKADAAMYCAKREGRNRFALFTEEMNSTVVERVTLESYLNAALEKGEFCCHFQPQMATADDRIVGVEALLRWTNPVLGRVPPLKFIPVAEDTGLILPLGLWALETACAQQVRWLSQGLPPLRMAVNISPLQFRNREFCDQVRAIVQRTGIRAEHLELELTESAVMADAESSVGILRELRDSGIRLAIDDFGTGYSSLSYLRKFPLDRLKIDRSFVSGIDRIPANELIVKAIVALGGSLGLDVIAEGVETPEELECIERCGCSEYQGFRLSEPLTAEDFAHWFEDSGYV”, “failed”; under “MSDYLDMLASFGVSSAHPGGMSLSKAVLAKAGIDPEQPILDAGCGTGQTAAYLGQLLFPVTALDADPVMIDKARQRFKKEQLSIPAVRSPLEEMPFQSESFACVLTESVLSFTNIRSALQEIRRILKPGGMLVAIEVCLKEGNALTDEAKKEITEFYGFTALYDEDEWVNVLREEGFSKIDIIPVVLEDAGDPDDAVEMDLSPAISDKDYETMEKHLHYLEKYRDSLDHIIFISHL”, “failed”.
Take “MSEAKELIKKMCDLQNSNEEIQKEMAGWSGVVQYKLDGYYFYVEYKSDGTCEFKEGVHSSPTFTVVAPPDFWLAVLKGQEDPVSGFMMGKYRIEGNIMEAQRLAGVIKKFQGKFEL”: the protein production result is on record as “not failed”.
Under “MSEALELLGQDIVARAPGVLGHSVAFGELTIVARAASVIDTLTFLRDDAACRFHQLIDLTGVDYPERAARFDVVYHLLSLVKNHRIRLKVSTDEDTPVPSVTPVFPVADWFEREAFDMYGIFFDGHPDLRRILTDYGFHGHPLRKDFPMTGYVEVRYDDELKRVVYEPVKITEFRAFDFLSPWEGAKYALPGDEKAQ” stands “failed”.
On to “MSEDEAQFHGNYDDYVTYLKRRIRQLELQVRMLEADKERLERELSRLRSEMSRLRQPPAFAGSVIEVLDDDRAIVQNYNGPRFVVRIAPWIDKSKLRPGTRVALDQRTMAIIEILPASKDPAVLGFEVVERPN”, for which the protein production entry is listed as “failed”.
With “MSEDRSSNGQKSWLGKLTQAFVHEPKNRQELLELLREAHQNKLLDSEALAIVEGAIQVADLQVRDIMVPRSQMISIKATQTPREFLPAVIDAAHSRYPVIGESHDDVLGVLLAKDLLPLILKADGDSDDVKKLLRPATFVPESKRLNVLLREFRANHNHMAIVIDEYGGVAGLVTIEDVLEQIVGDIEDEHDVEEDSYIKPLPSGDFLVKALTPVENFNEFFDSAFSDDEFDTVGGLVMNAFGHLPKRNEITEIGAYRFRILSADSRRIHLLRVTPISRP” the entry was “failed”.
With “MSEEKNTAIDLKNLKAGGFIKERGKDLFTVRLRVPGGRLPVGRLKKIAEVAEKYGQGMVHLSVRQSVELININFRDFDAVVAELGEGTQKVASCGARVRVPTACGGCEYNPNGLVDTQKSALEVDEKLFGIPTGHHKFKVGFAGCPFDCPKSATNDVGFQGAVWPVLSADHCIGCGLCAKSCTEDAIAMGDNGKPLFIPANCLYCGDCLKVCPTEAWRAGKKGYTVRIGGKWGRRPLVGTLFAEFLPEDQVVDFIAAVLGWYQEKAEGQGRIRLGDVIRAQGPEALLARLRERFPAFVVNATIAPQAIATQVGKEKQAHDNRLEHHHHHH” the entry was “not failed”; with “MSEGNRSRSRLLPSLLGLLILLSGLALLAGGIKLASLGGSLYYLLAGIGLALSGLLLLLGKRAALGLYALVLFASTVWALWEVGLDWWQLVPRLALWFVFGLLLWLPWFRRPLLADGPAPLGTAALGVAVVLAGAAAVGSQFTNPGQIVGRIDRDSGMTSTAPAMPDGDWQAYGRTEFGDRYSPLKQITPANVGQLEEAWRIRTGDLPTADDPLELTNENTPLKVNGMLYACTAHSKVLALDPDTGAEIWRFDPQIQSPVGFKGFAHMTCRGVSYYDEEQYARSDVGAPPAALSEAGKAVAASCPRRLFLPTADARLIAINADNGKVCEDFGVKGAVDLTAGIGPFTPGGYYSTSPAAVTRNLVIIGGHVTDNESTNEPSGVIRAFDVHDGKLVWNWDSGNPDETEPLAPGKFYTRNSPNMWSLASVDEKLGQVYLPLGNQMPDQWGGNRTPGAEKFSAGLVALDLNTGKLRWNYQFTHHDLWDMDVGSQPTLLDLKTADGVKPALIAPTKQGSLYVLDRRDGTPIVPIREVPAPQGAVEGDHTAPTQARSDLNLLRPPLTERDMWGSSPFDQMLCRIQFRSLRYEGQYTPPSEQGSLIYPGNVGVFNWGGVSVDPVRQILFTSPNYMAFVSQMVPRDKVPSGSKREGETSGVQPNTGAPYAVIMHPFMSPIGLPCQAPSWGDVAGIDLTTAKVVWQHKNGTSRDNTPVPIGLTVGVPSMGGSITTAGGVAFLSGTLDQYLRAYDVKDGKQLWQARLPAGGQATPMSYTGKDGRQYVLIVAGGHGSFGTRMGDYIIAYALPRQ”, “failed”; with “MSEGTLFVFTCDRPNGSSVIMCPGGGFLKTNLENEGIDFAEWFTKLGITYIVFKYRMPHGNPDVPEQDTRLALKVVREKFPEFCDKLGVMGASIGGYLATFSATLLPDDEKPDFQILMYPVVSVDDRLTHFPCRERMFGHSYSPDKMEQYSPIEHITSGTPAAFIVAAADDAVVSPLNGIMYAARLQKADIPISLHIYPAGGHGFGYNDSFVYKQEWLQELGEWLAKLLEHHHHHH”, “failed”.
With “MSEKPLISVLMPNYNSEKYLNEAIESILNQTYENFEFIILDDCSTDNSWKIIQEYAKKDKRINIFRNEKNLGRPKTYNRLLNMISNESFFFFFMGSDDVVKENMINIKLNYFNNFEEIDGIGNSIEYVDENLNFIKKREYPLTDRDIRKNFLIFNPISQGGMCLKSNLKNETFNEKYKVCLDYEIWTRLIDKGYTFENLKESLYLYRQQREQAKQKNLKMTLVNTVKIKSKYLFRPQYFSINAFLRFNLEILLLMLPKKLILWVFYKSL” the entry was “failed”; with “MSELNLSPDKLTVLLMGGSFGAGNIKETLDELLDTDRDFQILVITGKNESLKEKIEKKLMSRYHDKNVCVLGYTDKMNDILASIDVLVSKPGGLTTTEALLKDVPMIVPYYIPGQEEENLDFLSNCGAALRTTKKYNLSILLKVLIDDPSRLEMLKRNIKSIRKSNSAQNIANLILNIISGLEHHHHHH”, “failed”.
Consider “MSEMAGDSSTSEDKIHKPNRERNVSGELDVFEATRYFSDFNEPTTIEYSRIQIQKQSIVTENRQKRVHPETEEHLPKPRVVVIKPQKKEMTRGGGKKLTSFLNSLLRSAGLKKKSKSAPEVETPRVERMRRKSCVVTTHAADASPLTNAGAWSLNARRRSFDEKDLKKSDQKLNIRFCESLYSDQRVETKDPNAGDKNDVIGGCESDSSSESDLFELDLFAKSNP”, for which the protein production result is given as “failed”.
With “MSEPIPPFRYAPIVCSEQSTIVAEFVPEASGVREAGYQSEAELEAAFIKQLQGQAYEYLPITSEAALLANLRRQLEKLNKVTLSDAEWEGFFSTCIAGAHDGIVEKTARIQENHVQVLKRDDGTIKNMCLLDKVNIHNNTLQVMNQYAVEGARANRYDVTVLVNGLPMVHVELKRRGVDIREAFNQINRYQRDSFWAGSGLLDYVQLFVISNGTLTKYYSNTVRAGHVEEQSNKRSKSKTSNSFSFAIWWADAKNQPITELTSFTKTFFAKHSLLNVLTKYCVFNAKRKLLVMRPYQIVAAERILQRIVIATHQQQLGTVAAGGYIWHTTGSGKTLTSFKVAQLACGLGVIDKVLFVVDRKDLDYQTMREYESFQKGAANSNTSTAVLQRQLEDSDVHIIITTIQKLSRFVAKHKQHPVYGAHVVVIFDECHRSQFGDMHTKITRAFQRYHLFGFTGTPIFAENAGSTQNPMRRTTQQTFGDTLHTYTIVDAINDKTVLPFRIDYINTIKSQPNIKDKKVAAIDTERALLAPERIRQIVSYIREHFDQKTKRASIYRHEGQRLAGFNSLLATASIDAAKRYYAELMAQQKELPEARRLKVGLIYSVAANEGGGDGGLGEEEFETEGLDQESRNFLEAAIQDYNALFGTSFDTSADKFQNYYKDVSERLKKRKLDILIVVNMFLTGFDATTLNTLWVDKPLKAHGLIQAYSRTNRILNSVKSYGNIVSFRNLEQETNEALALFGNKDAKGIVLLRPYAEYYKQYEERVGELMAAFPLGKAIVGEAAQKAFITLFGSILRLKNILTAFDDFGGQEILTEREFQDYQSLYLNLYAEFRSASAAEKESINDDVVFEIELIKQVEINVDFILLLVEQYVKKKGTGEDKDIRATIERAIHSSPSLRNKKELIEQFVDAVSMKAKVDAQWQAFVAVKQSQELEGIIAEENLNAEAAREFIGNAFRDGGIPAMGTAITKVLPPVSRFSKNNGHAAKKQAVLDKFATFFERYFGLV” the entry was “failed”.
